The values below come from patent US20180186897A1 (INSTITUTE FOR RESEARCH IN BIOMEDICINE, published 2018).

Common to all, as to test: flow cytometry, staining of IEs
In general terms: Flow cytometry measures light scatter and fluorescence of single cells or particles in a stream.

Test [1] deals with erythrocytes infected with P. falciparum field isolate 10936.
Test [2] concerns the target erythrocytes infected with P. falciparum field isolate 10975.
The target of test [3] is erythrocytes infected with P. falciparum field isolate 11014.
Test [4] deals with erythrocytes infected with P. falciparum field isolate 11019.
Test [5] has as its target erythrocytes infected with P. falciparum field isolate 9106.
In test [6] the target is erythrocytes infected with P. falciparum field isolate 9215.
In test [7] the target is erythrocytes infected with P. falciparum field isolate 9605.
The target of test [8] is erythrocytes infected with P. falciparum field isolate 9775.

B1: MGD30 (antibody)
VH: QVQLQESGPGLVKPSETLSLSCAVTGGSITSSKWWTWVRQGPDKGLEWIGKIYHNGTTNYNPSLKSRVAMSVDKSRNQFSLRLTSVTAADTALYYCATASPFKSHHRTTEKLPRPSISAEPGTVIPLGSRVTFVCRGPVGVQTFRLERETSFTYNDTEDVSQVSPSESEARFRIDSVSEGYAGPYRCVYYKAPKWSEQSDYLDLLVKGEDVTWALTQPQLDPRACPQGDLRMSTDIYCMDVWGKGTTVTVSS
VL: AIRLTQSPSSLSASIGDRVTITCRASQDISTFLAWYQQESGKAPRLLIFAASTLQTGVPSRFSGSGSGTDFTLTISGLQSEDFATYYCQQYYCFPPDFGQGTRLDIK
With B1, the % parasite recognition was found to be 2.6% in test [1]; 6.5% in test [2]; 3.4% in test [3]; 4.4% in test [4]; 4.2% in test [5]; 9% in test [6]. Also, the figures for the % parasite recognition in test [7] and in test [8] were 7.4% and 5.6%, respectively.

B2: MGD33 (antibody)
VH: HVQLQESGPGLVKPSETLSLSCAVTGGSITSSKWWTWVRQGPDKGLEWIGKIYHNGTTNYNPSLKSRVAMSVDKSKNQFSLRLTSVTAADTAVYYCATASPFKSHHRTTEKLPRPSISAEPGTVIPLGSRVTFVCRGPVGVQTFRLERETRSTYNDTEDVSQVSPSESEARFRIDSVSEGYAGPYRCVYYKAPKWSEQSDYLDLLVKGEDVTWALTQPQLDPRACPQGDLRMSTDIYCMDVWGKGTTVTVSS
VL: AIRLTQSPSSLSASIGDRVTITCRASQDISTYLAWYQQESGKAPRLLIFAASSLQTGVPSRFSGSGSGTDFTLTISGLQSEDFATYYCQQYYCFPPDFGQGTRLDIK
For the molecule B2, the % parasite recognition was found to be 6.1% in test [1]; 14.2% in test [2]; 7% in test [3]; 9.6% in test [4]; 4.3% in test [5]; 15.5% in test [6]. Moreover, the % parasite recognition in test [7] is 12.3%; in test [8], 8.5%.

B3: MGC1 (antibody)
VH: EVQLVESGGGLVQPGGSLRLSCVASGFNFRKSWMGWVRQAPGKGLEWVANIREDGSESFYADSVKGRFTVSRDNAKKSLYLHINSLRAEDTAVYYCARDRFCNDDEIHRHGQEDLPRPSISAAEGTVIPLGSHVTFVCRGPVGVQTFRLEKDSRSIYNDTENVSQPSPSESEARFRIDSVSEGNAGLYRCVYYKAPKWSAQSDYLELLVKGQEVTWALFTSCGGDGEEPDYDMDVRGKGTTVTVSS
VL: DIVMTQSPDSLAVSLGERATINCKSSQSVLYRSKNKNYLAWFQQKPGQPPKVLIYSTSTRASGVPDRFTGSGSGTDFTLTISSLQAEDVAVYYCLQYYITPYTFGQGTKLEIK
Take B3: the % parasite recognition came out at 2% in test [1]; 1.4% in test [2]; 3.4% in test [3]; 32.7% in test [4]; 6.7% in test [5]; 14.9% in test [6]. Further, the % parasite recognition amounted to 19.5% in test [7] and 5.7% in test [8].

B4: MGC2 (antibody)
VH: EVQLVESGGGLVQPGGSLRLSCAASGFTFSNFWMGWVRQTPGKGLEWVANIKEDGSEKYYVDSVRGRFTISRDSAKNSLYLQMNSLRAEDTAVYYCVRERFCSNHIHKEEHLPRPSISPEPGTVITLGSHVTFVCRGPVGVQTFRLEKDSRSTYNDTEDVSQPSPSESEARFRIDSVSEGYAGLYRCLYYKPPKWSEQSDYLELLVKGDDVTWALYPSCGGDGEASDYNMDVWGKGTTVTVSS
VL: DIQMTQSPSTLSASVGDRVTISCRASQRFSGWLAWYQQKPGKAPNLLIYKASPLAGGGPSRFSGSGSGTDFTLTISSLQPDDSATYYCQHYSNYSYTFGQGTKLEIR
In the case of B4, the % parasite recognition in test [1] came to 2.8%; in test [2], 2.6%; in test [3] it was 1.5%; in test [4], 11.9%; in test [5] it was 5.6%; in test [6] it was 28.8%. The results for the % parasite recognition in test [7] and in test [8] were 22.4% and 2.9%, respectively.

B5: MGC37 (antibody)
VH: EVQLVESGGDLVQPGGSLRLSCAASGFTFRNYWMSWVRQTPGKGLEWVANIRQDGSEKYYVDSVKGRFTISRDNAKNLLYLQMNSLRAEDTAVYYCVRDKFCSDENHMHVADDLPRPSISPEPGTVIPLGSHVTFVCRGPVGVQTFRLEKDRRSTYNDTEDVSQPSPSESEARFRIDSVTEGNAGLYRCVYYKPPKWSDQSDFLELLVKGEDVTWALFPHCGADGEDSDYYMDVWGKGTTVTVSS
VL: DIQLTQSPSTLSASVGDRVTISCRASQRLSRSLAWYQQRPRKAPNLLIYKASPLEIGGPSRFTGSGSGTEFTLTISSLQPDDSATYYCQQYSNYSYSFGQGTKLEIR
Consider B5, for which the % parasite recognition in test [1] is 4.1%; in test [2], 7.5%; in test [3] it was 5.8%; in test [4] it was 51.8%; in test [5], 7.2%; in test [6], 9.9%. The figures for the % parasite recognition in test [7] and in test [8] were 22.2% and 4%, respectively.

B6: MGD34 (antibody)
VH: EVQLVESGPGLMKTSGTLSLTCAVSGDYVNTNRRWSWVRQAPGKGLEWIGEVHQSGRTNYNPSLKSRVTISVDKSKNQFSLKVDSVTAADTAVYYCARASPLKSQRDTEDLPRPSISAEPGTVIPLGSHVTFVCRGPVGVQTFRLERERNYLYSDTEDVSQTSPSESEARFRIDSVNAGNAGLFRCIYYKSRKWSEQSDYLELVVKGEDVTWALSQSQVDPRACPQGELPISTDIYYVDVWGNGTTFTVSS
VL: AIRMTQSPSSLSASPGDKVSITCRASQHINDSLAWFQQRPGKAPKLLIYGASNLHSGVPSRFSGTGSGTDFTLTITGLQSEDFATYFCQQCNCFPPDFGQGTRLEIK
Regarding B6, the % parasite recognition in test [1] is 8.1%; in test [2] it was 11.2%; in test [3], 13%; in test [4], 46.6%; in test [5], 5%; in test [6] it was 35.7%. Also, the % parasite recognition was found to be 28.4% in test [7] and 16% in test [8].

B7: MGD23 (antibody)
VH: QVQLQESGPGLVKPSGTLSLTCSVSGGSISSNKWWSWVRQSPGKGLEWIGEVYQTGITNYNPSLKGRVTMSVDKSKNQFSLRLTSVTAADTAVYYCATISQLRPQGDTEDLPRPSLSAEPGTVIPLGSHVTFVCRGPAGVETFRLERESRFTYNDTEDVSQASPSESEARFRIDSVSEGNAGPYRCLYYKARKWSDQSDYLELLVKGADVTWALPQSQLAPRACPQGELRISTDVFSMNVWGNGTTVTVSS
VL: AVRVTQSPTSLSASTGDRVTITCRTSQYVGNYLDWYQQKPGKAPKLLIHGVSTLQNGVPSRFSGSASGTDFTLNITCLQSEDSATYYCQQYYTSPPDFGQGTRLEIK
Turning to B7, the % parasite recognition stood at 4.3% in test [1]; 3.4% in test [2]; 6.3% in test [3]; 7.8% in test [4]; 5.7% in test [5]; 11.4% in test [6]. In addition, the % parasite recognition in test [7] is 14.7%; in test [8], 7.3%.

B8: MGC35 (antibody)
VH: EVQLVESGGGLVQPGGSLRLSCEASGFNSRSYWMTWVRQAPGKGLEWVASINQDATEKNYVDSVKGRFTISRDTAKNSLYLQMNSLRAEDTAVYYCARDRFCGGESHLHGQEDLPRPSISAEPGSVIPLGSLVTFVCRGPVGVHTFRLERGWTYNDTEDVSQAGPSESEARFRMDSVREGNAGLYRCIYYKPPKWSEQSAYLELRVKGGDVTWALLTYCGGDGEESDYPMDVWGKGTTVTVSS
VL: QTVVTQEPSLTVSPGGTVTLTCASSTGPVTSAYYPNWFQQKPGQAPRSLIYNINKKHSWTPDRFSGSLLGGKAALTLSGVQPEDEADYYCLLSCGGAQPWVFGGGTKLTVQ
B8: the % parasite recognition was 2.5% in test [1]; 7.4% in test [2]; 3.6% in test [3]; 3.2% in test [4]; 6.5% in test [5]; 19.5% in test [6]. The % parasite recognition in test [7] is 15.9%; in test [8], 7.2%.

B9: MGC36 (antibody)
VH: EVVLVESGGGLVQPGGSLRLSCEASGFNSRSYWMTWVRQAPGKGLEWVASINQDGTEKNYVDSVKGRFTISRDSAKNSLYLQMSSLRADDTAVYYCARDRFCGGESHLHGEEDLPRPSISAEPDTVIPLGSHVTFVCRGPVGVHTFRLERGWRYNDTEDVSQAGPSESEARFRIDSVREGNAGLYRCIYYIAPKWSEQSDYLELRVKGGDVTWALLTYCGGDGEESDYPMDVWGKGTTVTVSS
VL: QTVVTQEPSLTVSPGGTVTLTCASSTGPVTSAYYPNWFQQKPGQAPRSLIYSINKKHSWTPARFSGSLLGGKAALTLSGVQPEDEADYYCLLSCGGAQPWVFGGGTKLTVQ
As to B9, the % parasite recognition in test [1] amounted to 2.7%; in test [2], 8.6%; in test [3], 4.6%; in test [4], 17.9%; in test [5], 6.9%; in test [6], 12.4%. Besides, the % parasite recognition was 17.9% in test [7] and 6.2% in test [8].

B10: MGD35 (antibody)
VH: QVQLQESGPGLVKPSGTLSLTCAVSGASISSINWWSWVRQTPEKGLEWIGQIHHNGSTNYNPSLKSRVAISVDKSKNQFSLKLTSFTAADTAVYYCATASSLKSQRDTNLPRPSLSAEPGTVIPLGSPVTFVCRGPVGVHTFRLERAGRSTYNDTEDVSHPSPSESEARFRIDSVSEGNAGPYRCVYYKSSKWSEESYCLDLLVKTEDVTWARPQPQLDPRACPQGDLRISTDFYYMDVWGKGTTVTVSS
VL: AIRMTQSPSSLSASTGDRVTITCRTSQAIGTYLAWYQQNPGKAPNLLIYNASTLQSGVPSRFSASGSGTDFTLTISGLQSDDFVTYFCQHYYNYPPAFGQGTRLEIQ
For B10, the % parasite recognition was found to be 6.3% in test [4], 6.1% in test [5] and 3.6% in test [7].
